Experimental data taken from publication PMC12132311 (bioRxiv, 2025).
Values joined by “and” are separate entries in the source; they are usually repeats but may differ in a detail not shown here. Equal entries are not always repeated. No end group written: not given here. *: point of attachment. FITC = O=C1OC2(c3ccc(O)cc3Oc3cc(O)ccc32)c2ccc(NC(=S)*)cc21; 5FAM = O=C1OC2(c3ccc(O)cc3Oc3cc(O)ccc32)c2ccc(C(=O)*)cc21; Ahx = NCCCCCC(=O)O

T1: CHIP-optimized peptide CHIPopt (FITC-Ahx-LWWPD)
T1 peptide: {FITC-Ahx}-LWWPD

T2: FAM-labeled Hsp70 C-terminal peptide (5FAM-Ahx-SSGPTIEEVD)
T2 peptide: {5FAM-Ahx}-SSGPTIEEVD

T3: Carboxyl terminus of Hsc70-interacting protein (CHIP/STUB1), human, WT, full length (human), Q9UNE7
T3 chain: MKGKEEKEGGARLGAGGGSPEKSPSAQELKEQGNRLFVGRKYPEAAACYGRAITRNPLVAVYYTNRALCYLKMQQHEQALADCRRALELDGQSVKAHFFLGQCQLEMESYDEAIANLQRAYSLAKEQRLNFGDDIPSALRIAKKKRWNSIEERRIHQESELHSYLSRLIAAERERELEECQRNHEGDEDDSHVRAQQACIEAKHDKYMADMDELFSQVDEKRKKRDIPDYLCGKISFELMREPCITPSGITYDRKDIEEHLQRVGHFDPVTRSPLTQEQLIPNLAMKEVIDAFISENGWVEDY

B1: Fab 2D2 (CHIP-targeting fragment antigen-binding antibody) (Fab, V domains shown)
VH: QVQLQQSGPGLMKGGQTLSLTCAISGDSVSSNSAAWNWIRQSPSRGLEWLGRTYYRSKWYNEYAVSVKSRITINPDTSKNQFSLQLNSVTPEDTAVYYCARAVAASFDYWGQGTLVTVSS
VL: ETTLTQSPGTLSLSPGERATLSCRASQSVSSTFLAWYQQKPGQAPRLLIYGASRRATGIPDRFSGSGSGTDFTLTISRLEPEDFAVYYCQRYGATYTFGQGTKLEIK
B2: Carboxyl terminus of Hsc70-interacting protein (CHIP/STUB1), human, WT, full length (enzyme)
chain: T3 chain
B3: Fab H1 (CHIP-targeting fragment antigen-binding antibody) (Fab, V domains shown)
VH: VQLVQSGSEVKKPGASVKVSCKASGYTFTNYGISWVRQAPGQGLEWMGWISAYNGNTNYAQNFQGRVTMTTDTSTKTAYMELRSLRSDDTAVYFCARSGYSGYDNNLGAFDIWGQGTMVTVSS
VL: SVVTQPPSVSAAPGQKVTISCSGTSSNIGNSYVTWYQQLPGAAPKLLIYDNNKRPSGIPDRFSGSKSGTSATLGITGLQTGDEADYYCATWDSSLTAGRVFGGGTRLTVL

How the values were obtained:
[1] = biological target: Carboxyl terminus of Hsc70-interacting protein (CHIP/STUB1), human, WT, full length (human, UniProt Q9UNE7); assay: cryo-EM structure
Biotinylated CHIP = Biotinylated CHIP (Homo sapiens, UniProt Q9UNE7, biotin (site and way of biotinylation not stated)); assay: BLI
[2] = biological target: T1, CHIP-optimized peptide CHIPopt …; assay: fluorescence polarisation
[3] = biological target: T2, FAM-labeled Hsp70 C-terminal peptide …; assay: fluorescence polarisation
[4] = biological target: T3, Carboxyl terminus of Hsc70-interacting …; assay: cryo-EM structure; conditions: remark: other sources report otherwise
[5] = biological target: T1, CHIP-optimized peptide CHIPopt …; assay: fluorescence polarisation
[6] = biological target: T2, FAM-labeled Hsp70 C-terminal peptide …; assay: fluorescence polarisation

Binder	stoichiometry N [1]	Kd (Biotinylated CHIP)	apparent Kd with Fab 2D2 present [2]	apparent Kd with Fab 2D2 present [3]	stoichiometry N [4]	apparent Kd with Fab H1 present [5]	apparent Kd with Fab H1 present [6]
B1	1 Fab per CHIP dimer (printed as 2:1 CHIP:Fab)	40 nM	–	–	–	–	–
B2	–	–	0.016 nM	260 nM	2	0.01 nM	140 nM
B3	1 Fab per CHIP dimer (printed as 2:1 CHIP:Fab) and 2 Fab per CHIP dimer (printed as 2:2 CHIP:Fab)	1100 nM	–	–	–	–	–
